Patent US20210261665A1 (TAYU HUAXIA BIOTECH MEDICAL GROUP, published 2021)

Legend:
[1] = target: T1, hPD-1 mIg fusion protein (human; mouse, UniProt Q15116 25-170); assay: SPR Biacore T100, hPD-1mIg immobilised by amine coupling, antibody as analyte
T1 construct: extracellular domain; not shown: CH2-CH3 domain of mouse IgG2a heavy chain (plasmid pmIgG)
Experimental: Binding affinity and kinetics determination of the humanized antibodies: The binding affinity and kinetics of the humanized PD-1 mAbs interact with hPD-1 protein was assessed with Biacore T100 (GE Healthcare Life Sciences). […] Nine different concentrations were tested for each sample. Detailed binding kinetic parameters (association rate, Ka, dissociation rate, Kd, and affinity constant, KD) can be determined by full kinetic analysis.

[2] = target: human PD-1 on cells (human, UniProt Q15116 25-288); assay: cell-based or functional assay
[3] = target: T1, hPD-1 mIg fusion protein; assay: SPR Biacore T200, hPD-1 mIg immobilised at low level, antibody as analyte; reference pembrolizumab and nivolumab
Experimental: Antibody binding affinity and kinetics: The affinity and kinetics of theTY101 was analyzed using the Biacore T200 instrument (GE Healthcare Life Sciences) and compared with two commercial antibodies.

T1 sequence (Q15116 25-170): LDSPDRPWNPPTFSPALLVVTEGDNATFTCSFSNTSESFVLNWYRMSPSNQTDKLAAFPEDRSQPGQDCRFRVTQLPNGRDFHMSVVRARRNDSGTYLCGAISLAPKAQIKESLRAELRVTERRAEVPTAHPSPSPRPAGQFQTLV
Sequence of human PD-1 on cells (Q15116 25-288): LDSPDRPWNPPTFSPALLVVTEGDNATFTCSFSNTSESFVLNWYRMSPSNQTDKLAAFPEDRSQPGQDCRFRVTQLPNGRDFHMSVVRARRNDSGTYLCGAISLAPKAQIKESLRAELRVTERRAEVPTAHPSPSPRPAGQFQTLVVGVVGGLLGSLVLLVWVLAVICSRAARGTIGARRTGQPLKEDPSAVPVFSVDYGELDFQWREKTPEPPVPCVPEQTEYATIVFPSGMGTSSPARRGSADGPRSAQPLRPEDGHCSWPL

- Kd [1]: 96.3 pM
- koff [1]: 2.33e-05 s⁻¹
- kon [1]: 242000 M⁻¹ s⁻¹
- EC50; luciferase RLU of Jurkat-PD1 cells stimulated with CHO-PD-L1 cells (PD-1/PD-L1 Blockade Bioassay) [2]: 0.224 µg/mL
- fold slower dissociation rate Kd than the two commercial antibodies [3]: 10 fold
B1: Variant 3 (TY101) (antibody, V domains shown)
VH: EVQLVESGGGLVQPGGSLRLSCAASGFTFSSYTMSWVRQAPGKGLEWVSYISHGGGDTYYADSVKGRFTISRDNSKNTLYLQMNSLRAEDTAVYYCARHSGYERGYYYVMDYWGQGTLVTVSS
VL: DIQLTQSPDSLSVSLGERATINCKASESVDYYGFSFLNWFQQKPGQPPKLLIYAASNRQSGVPDRFSGSGSGTDFTLTISSLQAEDVAVYFCQQSKEVPWTFGQGTKLEIKR
notes: Humanized; VH variant a, VK variant c; Constant regions not spelled out; chimeric parent has human IgG4-S228P and human kappa; also called mutant combination 3
